Assay results published in patent US20230074793A1.

Molecular target: CTLA4 (cytotoxic T-lymphocyte-associated protein 4) (human) (UniProt P16410)
Assay: cell-based or functional assay

Sequence of CTLA4 (cytotoxic T-lymphocyte-associated protein 4) (human) (P16410 36-223): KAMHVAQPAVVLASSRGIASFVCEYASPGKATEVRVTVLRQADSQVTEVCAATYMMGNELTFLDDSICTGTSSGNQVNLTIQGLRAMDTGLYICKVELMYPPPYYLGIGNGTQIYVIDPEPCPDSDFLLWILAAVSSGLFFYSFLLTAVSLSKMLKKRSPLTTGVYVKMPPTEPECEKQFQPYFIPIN

XmAb®20717 (bispecific antibody)
IL-2 secretion (ELISA of culture supernatants) from SEB-stimulated human PBMC treated 24 hours, versus anti-RSV isotype-control bivalent antibody XENP15074: 4.1 fold
IL-2 secretion (ELISA) from SEB-stimulated human PBMC, versus a mixture of the monovalent component antibodies XENP20111 (anti-PD1 scFv-Fc) and XENP20059 (anti-CTLA4 Fab-Fc): 1.6 fold
IL-2 secretion (ELISA) from SEB-stimulated human PBMC, versus the bivalent anti-PD1 antibody XENP16432: 1.5 fold
